Assay results taken from patent KR20230010676A (dated 2023).

How the values were obtained:
Test in all cases: cell-based or functional assay
SARS-CoV-2 S N501Y = SARS-CoV-2 S N501Y (SARS-CoV-2, UniProt P0DTC2 14-1273)
SARS-CoV-2 S S477N = SARS-CoV-2 S S477N (SARS-CoV-2, UniProt P0DTC2 14-1273)
SARS-CoV-2 S N439K = SARS-CoV-2 S N439K (SARS-CoV-2, UniProt P0DTC2 14-1273)
SARS-CoV-2 S L452R = SARS-CoV-2 S L452R (SARS-CoV-2, UniProt P0DTC2 14-1273)
SARS-CoV-2 S E484K = SARS-CoV-2 S E484K (SARS-CoV-2, UniProt P0DTC2 14-1273)
SARS-CoV-2 S K417N = SARS-CoV-2 S K417N (SARS-CoV-2, UniProt P0DTC2 14-1273)
SARS-CoV-2 S T478K = SARS-CoV-2 S T478K (SARS-CoV-2, UniProt P0DTC2 14-1273)
SARS-CoV-2 S S494P = SARS-CoV-2 S S494P (SARS-CoV-2, UniProt P0DTC2 14-1273)
SARS-CoV-2 S A520S = SARS-CoV-2 S A520S (SARS-CoV-2, UniProt P0DTC2 14-1273)
SARS-CoV-2 S N501T = SARS-CoV-2 S N501T (SARS-CoV-2, UniProt P0DTC2 14-1273)
SARS-CoV-2 S A522S = SARS-CoV-2 S A522S (SARS-CoV-2, UniProt P0DTC2 14-1273)
SARS-CoV-2 S Y453F = SARS-CoV-2 S Y453F (SARS-CoV-2, UniProt P0DTC2 14-1273)
SARS-CoV-2 S P384L = SARS-CoV-2 S P384L (SARS-CoV-2, UniProt P0DTC2 14-1273)

Measured: S2E12의 중화 감소 (배)

B1: S2E12 (antibody, V domains shown)
VH: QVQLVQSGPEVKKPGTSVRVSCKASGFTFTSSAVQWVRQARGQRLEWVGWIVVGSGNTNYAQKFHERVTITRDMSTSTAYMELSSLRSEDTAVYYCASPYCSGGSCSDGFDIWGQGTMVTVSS
VL: DIVLTQTPGTLSLSPGERATLSCRASQSVSSSYLAWYQQKPGQAPRLLIYGASSRATGIPDRFSGSGSGTDFTLTISRLEPEDFAVYYCQQYVGLTGWTFGQGTKVEIK
notes: also called S2E12 WT; S2E12 wt
< 3 배: all assays above
